Drawing on US20220356256A1 (published 2022), this text covers Kd for one molecule.

Some targets named below: 5057 Fz4 B8; 5067 Fz4 C6; 5074 Fz4 D1; 5039 Fz4 A2; 5045 Fz4 A8; 5056 Fz4 B7; 5073 Fz4 C12; 5054 Fz4 B5; 5048 Fz4 A11; 5075 Fz4 D2.
Holding throughout (test): SPR

B1: FZD4 (Fc fusion)
chain: FGDEEERRCDPIRISMCQNLGYNVTKMPNLVGHELQTDAELQLTTFTPLIQYGCSSQLQFFLCSVYVPMCTEKINIPIGPCGGMCLSVKRRCEPVLKEFGFAWPESLNCSKFPPQNDHNHMCMEGPGDEEVPLPHKTPIQPGEE
For the molecule B1, the dissociation constant Kd turned out to be 2.56 nM with 5057 Fz4 B8; 1.63 nM with 5067 Fz4 C6; 3.61 nM with 5074 Fz4 D1; 2.57 nM in the assay with 5039 Fz4 A2; 1.3 nM in the assay with 5045 Fz4 A8; 1.14 nM in the assay with 5056 Fz4 B7. Besides, the Kd in the assay with 5073 Fz4 C12 turned out to be 0.422 nM; in the assay with 5054 Fz4 B5, 2.16 nM; in the assay with 5048 Fz4 A11 it was 3.71 nM; in the assay with 5075 Fz4 D2 it was 1.19 nM.
